# Measurements published in the nanobody polyreactivity screen of Harvey et al. (2022).
# Assay: yeast display, Sf9 membrane polyspecificity reagent, FACS + sequencing; frameworks hold sequencing errors
# In short: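 Galactose-induced (36–48 hours) yeast carrying a synthetic nanobody display library were exposed to 10% biotinylated, detergent-solubilized Sf9 membrane reagent at 4 °C for 1 hour. FACS followed streptavidin microbead enrichment, using low and high (top ~1%) gates for expression (anti-HA) and reagent binding (streptavidin). Colony PCR, MiSeq 2 × 250 sequencing and CDR-length filtering followed. Labels for polyreactivity reflect the gate of origin.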
row,Sequence,polyreactivity (PSR sort gate)
1,QVQLVESGGGLVQAGGSLRLSCAASGRIVWYAMGWYRQAPGKERELVAAINWSGGSTYYADSVKGRFTISRDNAKNTVYLQMNSLKPEDTAVYYCAADVRNYWLEYEYWGQGTQVTVSS,low polyreactivity
2,QVQLVESGGGLVQAGGSLRLSCAASGGTFTFYAMGWYRQAPGKERELVATINWSGGSTYYADSVKGRFTNSRDNAKNTVYLQMNSLKPEDTAVYYCNAAWAYKSVEYWGQGTQVTVSS,low polyreactivity
3,QVQLVESGGGLVHAGGSLRLSCAACGTTFINYAMGWYRQAPGKVRELVAVITSDDGSTYYADSVKGRFTISRDNAKNTVYLQMNSLKPEDTAVYYCAADYYDQRYRPGPWYDYWGQGTQVTVSS,low polyreactivity
4,QVQLVESGGGLVQAGGSLSLSCAASGSIFQPYVMGWYRQAPGKEREFVATIRYSGGITYADSVKGRFTISRDNSKNTVYLQMNSLKPVVTAVYYCACYCYCYWGQGTQVNVSS,low polyreactivity
5,QVQLVESGGGLVQAGGSLRLSCAASGRIFYLYARGWYRQAPGKERELVATISSSGGRTYYADSVKGRFTISRDNAKNTVYLQMNSLKPEDTAVYYCNAYGEDDGPYPFPGYNYWGQGTQVTVSS,low polyreactivity
6,QVHHVESGGGLVQAGGSLRLSCAASGSTFGAHAMGWYRQAPGKERELVAVITWNDGSTYYADSVKGRFKISRDNAKNTVYLQMNSLKPEDTAVYYCAAEYADSWSAFAWNYYYWGQGTQVTVSS,high polyreactivity
7,QDQLVESGGGLVQAGGSLRLSCAASGFIFNYYGMGWYRQAPGKERELVATISRGASTNYADSVKGRFTISRDNAKNTVYLQMNSLKPEDTAVYYCAKDYGDWGQGTQVTVSS,low polyreactivity
8,QVHLVESGGGLVQAAGSLRLSCAASVSTIPPNAMGWDRQAPGKEREFVAAISSVGSSYYADSVKGRFTISRDNAKKTFYLQMNSLKPEDTAVYYCAKGSWYWVEPYDYWGLGTQVTVSS,high polyreactivity
9,QVQLVESGGGLVQAGGSLRLSCAASGFTFVDNAMGWYRQPPRKERELVAAISWTGVGSTYYADSVKGRFTISRDNAKNTDYLQMNSLKPEDTAVYYCAADGLSRGVPDEFDYWGQGTQVTVSS,low polyreactivity
10,QVHLVESGGGLVQVGGSLRLSCAASGSIFRWYAMGWYRQAPGKERELVAAISSSVGRTYYADSVKGRFTISRDNAKNTVYLQMNSLKPEDTAVYYCAVRYSVVYGTYYYWGQGTKVTVSS,high polyreactivity
11,QVQLVESGGALVQAGGSLRLSCAASGGIFSYYAMGWYRQAPGKERELVAAMSWSGTSTYYADSVKGRFTISRDNAKNTVYLQMNSLNQEDTAVYYCNKVTYSRAQYIGGDGYFWGEGTQVTVSS,high polyreactivity
12,QVQLVESGGGLVQAGGSLRLSCAASGYIFAAYTMGWYRQAPGKEREFVAAITRSGGSTYYADSVKWRFTISRDNAKNTVYLQMNSLKPEDTAVYYCAARRWRYFPDYDYWGQGTQVTVSS,high polyreactivity
13,QVQLVESGGGLVQAGGSLRLSCAASGSTFPYPYTMGWYRQAPGKERELVAVNSRTGGSTFYADSVKGRFTISRDNAKNTVYFQMNSLKPEDTAVYYCAARRDGWTFWKYDYWGQGTQVTVSS,high polyreactivity
14,QVQHVESGGGLGQAGGSLRLSCAASGGTFQTNAKGCYRQAPGKERELVAGIRWRGGSTYYADSVKGRFTISRDNAKNTVYLQMKSLKPEDTAVYYCAAYYWQGTYDSRRTGWRLMNYWGQGTQVTVSS,high polyreactivity
15,QVHLVDSGGGKVQAGGSLRLSCAASGSIFYWNAMGWYRQAPGKERELVATITITTSTNYADSVKGRFTISRDNATHSVYLQMNSMKPEDTAVYYCNAGAPYRYLDEYNYWGQGTQVTVSS,low polyreactivity
16,QVQLVESGGGLVQAGGSLRLSCAASGNIFNLYAMGWYRQAPGKERELVAAIRGSGSTYYADSVKGRFTISRDNAKNTVYLQMNSLKPEDTAVYYCAAGISGHYYWGQGTQVTVSS,high polyreactivity

row,Sequence,polyreactivity (PSR sort gate)
1,QVQLVESGGGLVQAGGSLRLSCAASGSTFDGNAMGWYRQAPGKERELVAAITYTTSSTYYADSVKGRFTISRDNAKNTVYLQMNSLKPEDTAVYYCAADASYLPYPLPGTEYEYWGQGTQVTVSS,low polyreactivity
2,QVQLLESGGGLVQAGGSLRLSCAASGRIYLYAMGWYRQTPGKERELVAAISYSGGSTYYADSVKGRFTISRDNAKNTVYLQMNSLKPEDTAVYYCAAEAGSYWRWFWYDSWGQGTQVTVSS,high polyreactivity
3,QVQLVESGGGLVQAGGSLRLSCAASGIIFTRYVMGWYRQAPGKQRELVAVISRRGGTTYYADSVKGRFTISRDNAKNTVYLQMNSLKPEVTAVYYCNTDGYRYPGSGINYYYWGQGTQVTVSS,high polyreactivity
4,QVQLVESGGGLVQAGGSLRLSCAASGLTFQVYAMGWYRQAPGKERELVAGITRGGRTYYADSVKGRFTISRDNAKNTVYLQMNSLKPEDTAVYYCNADAPYGGPSWAKSRYEYWGQGTQVTVSS,low polyreactivity
5,QVQLVESGGGLVQAGGSLRLSCAASGITFYDNAMGWYRPAPGKERELVAGISYDGDSTYADSVKGRFTISRDNAKNTVYLQMNSLKPEDTAVYYCAALGPYDWLWAGDYWGQGTQVTVSS,low polyreactivity
6,QVQLVESGGGLVQAGGSLRLSCAASGFTFGGYAMGWYRQAPGKERGLVAAISGSGGRTYYADSVKGRFTISRDNAKNTVYLQMNSLKPEDTAVYYCAAETVTRSFYSEYDYWGQGTQVTVSS,low polyreactivity
7,QVQLVESGGGLVQAGGSLRLSCAASGRTFVYNGMGSYRQAPGKERELVAAISGSGGSTYYADSVKGRFTISRDNAKNTVYLQMNSLKPEDTAVYYCATRQGYRLYYWGQGTQVTVSS,high polyreactivity
8,QVQLVESGGGLVQAGGSLRLSCAASGNIFYVYVMGWYRQAPGKERELVAAISRGGGSTYYADSVKGRFTISRDNAKNTVSLQMNSLKPEDTAVYYCAARRGYPSGYEYWGQGTQVTVSS,high polyreactivity
9,QVQLVESGGGLVQAGGSLRLSCAASGSTFFRYAMGWYRQAPGKEREFVAAISKRGGSTHYADSVQGRFTLSRDNAKNTVYLQMNSLKPEHTAVYYCAASSFTSSYNYWGQGTQVTVSS,high polyreactivity
10,QVQLVESGGGLVQAGGSLRLSCAAYGRTIRVYAMVWYRQAPGKERELVAAITSGDSTYYADSVKGRFTISRDNAKNTVYLQMNSLKPEDTAVYYCAVNTRRYWYGYWGQGTQVTVSS,high polyreactivity
11,QVQLVESGGGLVQAGGSLRLSCAASGFIFYYYAMGWYRQAPGKVRELVAAISTDGGSTYYADSVKGRFTISRDNAKNTVYLQMNSLKPEDTADYYCNAPYYGWGYWPLEYIRYEYWGQGTQVTVSS,low polyreactivity
12,QVQLVESGGGLVQAGGSLRLSCAASGRIFYYYPMGWYRQAPGKERELVADITRGGGTYYADSVKGRFTISRDNAKNTVYLQMNSLKPEDTAVYYCAKGGPPESHHPYRYRFDYWGQGTQVTVSS,low polyreactivity
13,QVQLVESGGGLVQAGRILRLSCAASGYIFRRYAMGWYRQAPGKERELVAVISSRGGSTYYADSVKGRFTISRDNATKTVYLQMNSLKPEDTAVYYCAARSGSRATFLSDYWGQGNQVTVSS,high polyreactivity
14,QVQLVDSGGGLVQAGGSLRLSCAASGAIFDIYGMGWYRQAPGKERELVASISGGAGSTNYADSVKGRFTISRDNAKNTVYLQMNSLKPEDTAVYYCAAEVYVPDYFQHKFDVEYEYWGHGTQVTVSS,low polyreactivity
15,QVQLVESGGRLVQAGGSLRLSCAASGRTFHKNAMGWYRQAPGKERELVAAISGSGGSTYYADSVKGRFTISRDNAKNTVYLQMNSLKPEDTAVYYCAADSSYYEEDYWGQGTHVTVSS,high polyreactivity
16,QVQLVESGGGLVQAGGSLRLSCAASGRTLVPYAMGWYRQAPGKERELVAAISNVSSTNYADSVKGRFTISRDNAKNTGYLQMNSLKPEDTAVYYCNAVGVPSEYYSWGQGTQVTVSS,low polyreactivity
